Test results from publication PMC3259534.
Blank lines part the entries; values can stand above or below the binder they belong to.

Key:
[1] = target: MRG15 MRG polypeptide (residues 155–323), K201R background (human) (UniProt Q9UBU8); assay: ITC
[2] = target: MRG15 MRG L287A (human) (UniProt Q9UBU8); assay: ITC
[3] = target: MRG15 MRG M228A (human) (UniProt Q9UBU8); assay: ITC
[4] = target: MRG15 MRG M273A (human) (UniProt Q9UBU8); assay: ITC
[5] = target: MRG15 MRG R201K (human) (UniProt Q9UBU8); assay: ITC
[6] = target: MRG15 MRG V227A (human) (UniProt Q9UBU8); assay: ITC
[7] = target: MRG15 MRG V268A (human) (UniProt Q9UBU8); assay: ITC
[8] = target: MRG15 MRG W172A (human) (UniProt Q9UBU8); assay: ITC
[9] = target: MRG15 MRG polypeptide (residues 155–323), K201R background (human) (UniProt Q9UBU8); assay: NMR titration

Binder: DYVQPQLRRPFELLIAAAMERNPTQFQLPNELTCTTALPGSS (domain or fragment) [Pf1 MBD (MRG-binding domain, residues 200–241)]
- Kd [2]: 0.407 µM
- Kd [3]: 0.075 µM
- Kd [4]: 0.096 µM
- Kd [5]: 0.023 µM
- Kd [6]: 0.194 µM
- Kd [7]: 0.184 µM
- Kd [8]: 0.067 µM
- Kd [1]: 0.012 µM

Binder: DYVQPQLRRPFEALIAAAMERNPTQFQLPNELTCTTALPGSS (domain or fragment) [Pf1 MBD L212A]
- Kd [1]: 0.035 µM

Binder: DYVQPQLRRPFELLIAAAMERNPTQFQLANELTCTTALPGSS (domain or fragment) [Pf1 MBD P228A]
- Kd [1]: 0.085 µM

Binder: DYVQPQLRRPFELAIAAAMERNPTQFQLPNELTCTTALPGSS (domain or fragment) [Pf1 MBD L213A]
- Kd [1]: 0.28 µM

Binder: DYVQPQLRRPFELLIAAAMERNPTQFQAPNELTCTTALPGSS (domain or fragment) [Pf1 MBD L227A]
- Kd [1]: 0.37 µM

Second part, the binder after the results:

- Kd [1]: 0.016 µM
B1: Pf1 (aa 114–258) (domain or fragment)
chain: ELGHVNGLVDKSGKRTTSPSSDTDLLDRSASKTELKAIAHARILERRASRPGTPTSSASTETPTSEQNDVDEDIIDVDEEPVAAEPDYVQPQLRRPFELLIAAAMERNPTQFQLPNELTCTTALPGSSKRRRKEETTGKNVKKTQ

- Kd [1]: 2.6 µM
Binder: DYVQPQLRRPAELLIAAAMERNPTQFQLPNELTCTTALPGSS (domain or fragment) [Pf1 MBD F210A]

- Kd [1]: 0.015 µM
Binder: DYVQPQLRRPFELLIAAAMEREPTQFQLPNELTCTTALPGSS (domain or fragment) [Pf1 MBD N221E]

- Kd [1]: 19 µM
Binder: DYVQPQLRRPFELLIAAAMERNPTQAQLPNELTCTTALPGSS (domain or fragment) [Pf1 MBD F225A]

- Kd [9]: 119 µM
Binder: ERNPTQFQLPNELT [Pf1 peptide corresponding to the tail segment (residues 219–232)]
